Experiments:
[1] = Refolding from E. coli inclusion bodies (urea solubilization, dialysis); assay type: physicochemical; conditions: urea solubilization followed by refolding
Method: Refolding and purification of constitutively active OaAEP1b-C247A-4351 using dialysis method: With all steps performed at 4° C., protein purification was achieved by resuspending thawed pellets in 30 mL of lysis buffer (100 mM Bis-Tris, pH 6.5, 500 mM NaCl, 10% (v/v) glycerol), sonicating the pellets followed by clearing the lysates by centrifugation at 58,000 g for 45 min. The insoluble fraction was resolubilized in 10 mL of resolubilizing buffer (50 mM Bis-Tris, pH 6.5, 150 mM NaCl, 1 mM EDTA, 50 mM Glycine, 8 M urea) overnight, with agitation. The concentration of denatured protein was determined using nanodrop and diluted to ˜2 mg mL-1 with buffer 1 (50 mM Bis-Tris, pH 6.5, 150 mM NaCl, 500 mM L-Arginine, 1 M urea, 0.25 mM L-Glutathione oxidized, 2.5 mM L-Glutathione reduced). The diluted denatured protein was dialyzed against buffer 2 (50 mM Bis-Tris, pH 6.5, 150 mM NaCl, 200 mM L-Arginine, 0.125 mM L-Glutathione oxidized, 1.25 mM L-Glutathione reduced) for 8 hr, followed by two buffer exchanges with buffer 3 (20 mM Bis-Tris, pH 6.5, 150 mM NaCl), for a duration of 8 hr for each buffer exchange. The refolded proteins were purified by affinity chromatography (HisTrap column, Cytiva), followed by size exclusion chromatography (HiLoad 16/600 Superdex 200, Cytiva). The proteins eluted as monomers during size exclusion purification. […]

[2] = test system: peptides PIE {EDANS} YNAL and GIK {DABSYL} SIP; assay: FRET ligation kinetics assay; assay type: biochemical
Method: Kinetics assay: The kinetic properties of the peptide ligation of the constitutively active PAL were studied using a FRET assay. Two peptides synthesized by GenScript: PIE {EDANS} YNAL (SEQ ID NO:18) and GIK {DABSYL} SIP (SEQ ID NO:19) were mixed at a molar ratio of 1:3. Upon ligation, the peptide PIE {EDANS} YNGIK {DABSYL} SIP (SEQ ID NO: 20) is produced. 50 nM of PAL enzyme is mixed with various concentrations of the peptide mixture. The EDANS fluorescence signal was measured with an excitation wavelength of 336 nm and an emission wavelength of 490 nm. A reduction in EDANS fluorescence signal occurs upon ligation of the two peptides due to quenching by DABSYL. The variation in fluorescence signal for each substrate mixture concentration was measured after addition of the enzyme to initiate the reaction. The rate of decrease in fluorescence signal during the first 30 seconds after enzyme addition was plotted against the substrate concentration to obtain the Vmax, kcat and KM values for each enzyme.
Next, using a FRET ligation assay, the ligase activity of the truncated OaAEP1b-C247A-Δ351 was compared with its acid-activated zymogen counterpart. Briefly, 50 nM of either enzyme was added to a mixture of two peptides A: PIE (EDANS) YNAL (SEQ ID NO:18) and B: GIK (DABSYL) SIP (SEQ ID NO:19). These two peptides were mixed in a A:B molar ratio of 1:3. Upon ligation, the fluorescence signal emission of the EDANS moiety of A (λem=490 nm) becomes quenched by the DABSYL moiety of B. (FIG. 7A). This assay the ligation rate to be followed between both peptides in real-time, giving access to the kinetic parameters of the truncated enzyme.

[3] = 50 nM enzyme, peptides A:B molar ratio 1:3

peptides PIE {EDANS} YNAL and GIK {DABSYL} SIP, sequence (as listed by the source): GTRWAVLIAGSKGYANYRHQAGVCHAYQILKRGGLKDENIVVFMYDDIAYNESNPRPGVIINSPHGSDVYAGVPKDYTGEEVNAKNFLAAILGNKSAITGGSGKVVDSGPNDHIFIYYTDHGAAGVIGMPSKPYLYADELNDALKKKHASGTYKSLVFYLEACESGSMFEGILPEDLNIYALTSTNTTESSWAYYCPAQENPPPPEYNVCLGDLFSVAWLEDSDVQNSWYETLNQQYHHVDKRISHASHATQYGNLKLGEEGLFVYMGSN

B1: OaAEP1b-C247A-Δ351: truncated OaAEP1b-C247A construct, residues 352-474 deleted, D351 as C-terminus; constitutively active peptide asparaginyl ligase (protein)
chain: GTRWAVLIAGSKGYANYRHQAGVCHAYQILKRGGLKDENIVVFMYDDIAYNESNPRPGVIINSPHGSDVYAGVPKDYTGEEVNAKNFLAAILGNKSAITGGSGKVVDSGPNDHIFIYYTDHGAAGVIGMPSKPYLYADELNDALKKKHASGTYKSLVFYLEACESGSMFEGILPEDLNIYALTSTNTTESSWCYYCPAQENPPPPEYNVCLGDLFSVAWLEDSDVQNSWYETLNQQYHHVDKRISHASHATQYGNLKLGEEGLFVYMGSNPANDNYTSLDGNALTPSSIVVNQRDAD
behaviour during refolding procedure [1]: could be refolded | Km [2, 3]: 8.16 µM | Vmax [2, 3]: 6.40 RFU/see | ligation activity relative to acid-activated zymogen counterpart (fold less) ([2]; FRET ligation assay): about 2 fold

From patent publication US20250283065A1, “TRUNCATED POLYPEPTIDES HAVING PROTEIN LIGASE ACTIVITY AND METHODS OF PRODUCTION THEREOF” (NANYANG TECHNOLOGICAL UNIVERSITY, priority 2022, published 2025)
